Source: the supplement of paper PMC10724198
± gives the standard deviation of the averaged measurements.

test system: Saccharomyces cerevisiae; assay: protein stability index of tFT-peptide fusion (C-terminal peptide) (PSI (0-1 scale)); higher = more stable (slower turnover); conditions: genetic background: wild type; temperature: 30 C
Description: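 Multiplexed protein stability (MPS) profiling in S. cerevisiae. Random 12-aa peptides (tFT-X12 library) are fused to the C-terminus of a sfGFP-mCherry tandem fluorescent timer, after mCherry and a GGGS linker. Cells are FACS-sorted into 8 mCherry/sfGFP bins and deep-sequenced. The protein stability index (PSI) is the read-weighted bin average, scaled from 0 (unstable) to 1 (stable). Only peptides with >10 reads are reported; cells were grown at 30 °C in SC-His with glucose.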
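Also: PSI is a weighted mean of sequencing reads over stability bins, variants kept only with over 10 reads, mCherry proximal and sfGFP distal, peptide attached via GGGS linker.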

Sequence | protein stability index
VQLGRRGQAVEP | 0.7 ± 0.036
TFISNYSCILSL | 0.644 ± 0.013
APRPSNRRPRPR | 0.629 ± 0.025
GLAELKSYDGEG | 0.696 ± 0.034
ASSFEGVWCTGC | 0.721 ± 0.0093
RGRLVVGAGRED | 0.697 ± 0.049
SILEIFSQGTEM | 0.693 ± 0.01
SRSHSPLCPSFA | 0.604 ± 0.026
PPLLQPPPPRLL | 0.736 ± 0.048
EVPLGLIRLPSV | 0.695 ± 0.06
GGWGGRSGTEGE | 0.686 ± 0.013
PPLPLTSPPPSP | 0.631 ± 0.024
RMRTGTKCLSAG | 0.705 ± 0.17
ACYEYRPSPASC | 0.728 ± 0.053
LPDLSPIRRCPL | 0.694 ± 0.04
RTECRCCVGEVG | 0.656 ± 0.069
PATRFSPPSSLS | 0.745 ± 0.028
KVEVKRMKKEVK | 0.668 ± 0.014
QQKKKTKGNNEV | 0.661 ± 0.065
KNEEKIDKIEEQ | 0.72 ± 0.09
SGEVGVGHWVGG | 0.6812 ± 0.0053
HSLRPPPPPAPT | 0.7146 ± 0.0045
AAIFDSIRKDLR | 0.69 ± 0.039
PRCPVNTHPLAR | 0.702 ± 0.013
VLRRADLGYPRV | 0.663 ± 0.048

Sequence | protein stability index
GGALTADTTIAP | 0.662 ± 0.087
SLWTDGYIFVLE | 0.732 ± 0.016
PAPPTPPPPLYP | 0.715 ± 0.015
ASSMLPVCLVTL | 0.588 ± 0.056
LSIFFCRCFSSF | 0.59 ± 0.021
CFPSFVTFSSLF | 0.7722 ± 0.0041
HWYFARTSTVSC | 0.5505 ± 0.0015
CCCVGRGVGSRF | 0.703 ± 0.0054
GGGGGGGGYLGA | 0.715 ± 0.027
PGCYRVPIHSFS | 0.7131 ± 0.0015
RTWNSIESRKIK | 0.706 ± 0.074
GGCAGRGGVVVR | 0.6904 ± 0.0029
PFIAHSACAALN | 0.604 ± 0.011
PPPPPPLAAPPS | 0.7098 ± 0.0053
SPPCPLPLPPPP | 0.626 ± 0.057
LRSIAVLPPSPF | 0.695 ± 0.039
RLDFFIFSRWWI | 0.727 ± 0.031
PLPLLPLPPLAP | 0.67 ± 0.098
ELRPSTTPLHPS | 0.68268 ± 0.00044
EWCAVYDQGNRF | 0.818 ± 0.11
NINITQNVKNIK | 0.716 ± 0.06
FLFASSGFLGRF | 0.67 ± 0.036
KQHWIDDRNRIE | 0.716 ± 0.065
LFAGPPTGPNAR | 0.802 ± 0.12
SPPLRPPAPLVL | 0.631 ± 0.14

Sequence | protein stability index
LPKARPRTNPPP | 0.712 ± 0.15
KDTDTAHETERK | 0.697 ± 0.033
FHVFTRTVGSVL | 0.643 ± 0.075
WEEKLEGTPTGG | 0.72 ± 0.072
LSEVFLSMNVVL | 0.676 ± 0.06
AAISGELRVWVL | 0.642 ± 0.0081
FVLARLTYSILI | 0.482 ± 0.047
ARGIVAHKVTQP | 0.65 ± 0.11
SPFLTPSSHPPS | 0.681 ± 0.03
ADQVGRAVIIAS | 0.644 ± 0.0074
PSPLRPSPAVPS | 0.716 ± 0.064
VGAFCLLLGFEG | 0.599 ± 0.038
TPEQMKIKRNVE | 0.69 ± 0.009
PPHPPLPPPSPS | 0.704 ± 0.056
DTALMQAGSLFH | 0.651 ± 0.054
PRPLLFPLIFTP | 0.627 ± 0.026
PLLLAPPPPSPP | 0.739 ± 0.036
ARVLVLMNGVCV | 0.592 ± 0.032
NRVHLPELAFIT | 0.662 ± 0.014
LFRRVASILPRD | 0.668 ± 0.013
CLLLGDALGYYG | 0.683 ± 0.033
WRRCSGVGVGSP | 0.663 ± 0.072
SNRQDHACGGSA | 0.687 ± 0.11
ECRGGPGLGGGV | 0.635 ± 0.046
ANKKKKKIKTKH | 0.757 ± 0.12

Sequence | protein stability index
GRSVSGYGSFID | 0.686 ± 0.017
GSNRLYRGVTIT | 0.627 ± 0.0082
LLKQDNSVLSEL | 0.63 ± 0.07
LLDGASALIFGG | 0.617 ± 0.057
GGGSGGEAVRVW | 0.645 ± 0.026
SLLGFAGSCLLG | 0.735 ± 0.1
VLVTWLESVGGL | 0.634 ± 0.027
GGGRGGFRVVVG | 0.744 ± 0.042
PPLLLTSLMLLP | 0.655 ± 0.034
GLGVVSVWSGGL | 0.703 ± 0.044
QRWTAGTQIRPV | 0.706 ± 0.0086
FFVCCGTRLIGL | 0.716 ± 0.04
EHIRPNMSSYAV | 0.728 ± 0.072
RSPPPFLSIFPL | 0.745 ± 0.01
GFVGVGEEEIFG | 0.7217 ± 0.006
RSCAGGVGAVFF | 0.758 ± 0.055
PPRPPPSPPLPS | 0.663 ± 0.054
VRSCGTAGKGVT | 0.615 ± 0.029
PCTPLPRPRTSR | 0.702 ± 0.065
NERTETVHQGTP | 0.691 ± 0.045
GEIMGEVARREK | 0.66 ± 0.048
PPLSPTLTIPPP | 0.698 ± 0.079
IIKKKKKIKRNN | 0.683 ± 0.014
ESHSIIRRRSWW | 0.7797 ± 0.0037
PSPASPTPPLVQ | 0.682 ± 0.067

Sequence | protein stability index
EKKDKKKRKEKG | 0.674 ± 0.028
GSREHYGLFLGH | 0.673 ± 0.032
NKNGGDLCLGSS | 0.652 ± 0.049
PVHFLPTPRAPL | 0.686 ± 0.039
KKKKKKKYKQRK | 0.706 ± 0.05
QKKKKKKKRKKT | 0.59 ± 0.062
PAPRLEPRSPNV | 0.676 ± 0.021
EYTRGIRKTRRA | 0.608 ± 0.051
PSPPSAKLRRTP | 0.72 ± 0.057
IRLSCGRVGGVV | 0.648 ± 0.012
YFGPSPTRPPVP | 0.7225 ± 0.0015
PITFTSRYLLLE | 0.697 ± 0.042
KVCGRIWWCPRA | 0.638 ± 0.03
WLAIFFFSLSPF | 0.525 ± 0.055
PHILPTSDSPFP | 0.78463 ± 0.00073
GLTGAATVPHSA | 0.732 ± 0.013
GKALESLEGQFT | 0.728 ± 0.019
PILPPVPPRASS | 0.7029 ± 0.0053
HPTHTPPSTHRD | 0.7316 ± 0.0053
WSRVQFFYFCWI | 0.547 ± 0.051
IKKKNRKERQKK | 0.678 ± 0.015
LHSIPLNPYLIA | 0.712 ± 0.16
GCFRGLYVVRGG | 0.647 ± 0.039
AYKGTPTCKTRR | 0.689 ± 0.1
VRVGNYTRARCK | 0.714 ± 0.035

Sequence | protein stability index
GACSIVFYKVKR | 0.653 ± 0.048
VPISLSVVVLPV | 0.569 ± 0.017
LFPPTPRPLPLP | 0.654 ± 0.023
MESGKILGCCGI | 0.684 ± 0.012
PVRDGFSLCFVL | 0.761 ± 0.14
GRGGLGGGEWDR | 0.711 ± 0.0028
MKPPRGRIVITG | 0.626 ± 0.02
RMDIRVWATFCG | 0.705 ± 0.11
KKLAPHPLTTRV | 0.642 ± 0.078
HDPPPPPPLPRP | 0.626 ± 0.024
FLSFRLCTAAPV | 0.559 ± 0.031
LGSVLSLVRFGR | 0.677 ± 0.016
AFPPDVPPLTPL | 0.72 ± 0.1
TWIKVPVERTRP | 0.683 ± 0.053
PPPPPSPSASSP | 0.491 ± 0.11
IVHIKRVLGNAA | 0.636 ± 0.012
GGCGNVGVGVSV | 0.694 ± 0.012
GPYPPFSPPPLS | 0.697 ± 0.072
GRPRPRSGWILL | 0.672 ± 0.067
LYQEPLRNACFC | 0.683 ± 0.1
PSALSEQQANGF | 0.6838 ± 0.0022
YARVIFGGNWFS | 0.552 ± 0.02
PVPMVPTYPPSP | 0.736 ± 0.044
VIWAPVLAFSVR | 0.638 ± 0.051
HFLVGPLSPLLS | 0.662 ± 0.019

Sequence | protein stability index
FPPLPPPPPPLN | 0.743 ± 0.065
LPKSRIGPILNG | 0.743 ± 0.12
HLTCVVGRDLGI | 0.606 ± 0.015
VRGLGVIGVCVL | 0.741 ± 0.019
GGGVWGVGRGIL | 0.6 ± 0.013
RADIRYCNCRGQ | 0.607 ± 0.045
RLPAVPSHPGLL | 0.729 ± 0.037
STVGRFPLSFHH | 0.726 ± 0.062
PKKKKKKTKAEK | 0.712 ± 0.035
MPGSLPVSRVLL | 0.74 ± 0.087
RDVWPFTGKRAL | 0.672 ± 0.014
WSSTPSCVPDLP | 0.721 ± 0.054
GNAGGFRSLISW | 0.663 ± 0.065
STGRTSVNLCFS | 0.706 ± 0.041
ARCGNSAPWHVG | 0.693 ± 0.019
GKEGGRERVANE | 0.639 ± 0.091
GRVGGRSGGRGR | 0.68 ± 0.013
DNQQRQKKKNKK | 0.65 ± 0.013
SVWGGVPLVRET | 0.6854 ± 0.0015
TSPTPFVSCSLP | 0.629 ± 0.044
KQKKKSQTKTRK | 0.718 ± 0.034
GIKKKKKKQDKK | 0.728 ± 0.076
TPHQPPPPRPSP | 0.7057 ± 0.0037
PPQRNFPARPTP | 0.6988 ± 0.0034
GELGIECREVVG | 0.704 ± 0.087

Sequence | protein stability index
LFPCFSFPFSFL | 0.587 ± 0.055
GHCFCRLLPLHW | 0.755 ± 0.025
GGRIRLLTYFGR | 0.601 ± 0.042
NPWTHVPGRQNH | 0.731 ± 0.054
PLARLRFRSVVG | 0.6678 ± 0.0038
HLSPAPPPPSAP | 0.706 ± 0.11
TAHPCVYRRGAV | 0.675 ± 0.021
SPTPSPCIPSPP | 0.701 ± 0.0089
RNVFVPFMRGSP | 0.737 ± 0.077
LYVTYVPYTYAT | 0.665 ± 0.012
NFLPSAARTRTP | 0.6758 ± 0.0023
ETSERIEDKDGI | 0.698 ± 0.051
FFVRVVGDLRWE | 0.583 ± 0.019
NFPVLLSISALL | 0.548 ± 0.072
AFPLPPPPPPKP | 0.708 ± 0.012
SCPSFVWLSFPQ | 0.7142 ± 0.0056
WARDLGAVAVQT | 0.518 ± 0.075
GVWCDIVLPGVM | 0.704 ± 0.052
ESRPRVGLERER | 0.676 ± 0.053
PAPSRRTVTDYW | 0.654 ± 0.015
MLMFSASAVWGG | 0.556 ± 0.048
